Experimental data from the RNAGym collection of RNA variant scans (doi:10.7554/elife.80360).

B1: CPEB3 Ribozyme (parent)
chain: GGGGGCCACAGCAGAAGCGUUCACGUCGCGGCCCCUGUCAGAUUCUGGUGAAUCUGCGAAUUCUGCUGU

Variants of: B1
Assay: self-cleavage, relative activity (ratio to wild type); higher = more cleavage; co-transcriptional

Variant | self-cleavage
GGGGGCCACAGCAGAAGCGUUCACGUCGCGGCCCCUGUCAGAUUCUAGUGAAUCUGCGAAUGCUGCUGU | 0.959
GGGGGCCACAGCAGAAGCGUUCACGUCGCGGCCCCUGUCAGAUUCUAGUGAAUCUGCGAAUUCUGCUCU | 1
GGGGGCCACAGCAGAAGCGUUCACGUCGCGGCCCCUGUCAGAUUCCGGUGAAUCUGCUAAUUCUGCUGU | 0.933
GGGGGCCACAGCAGAAGCGUUCACGUCGCGGCCCCUGUCAGAUUCCGGUGAAUCUGCCAAUUCUGCUGU | 0.976
GGGGGCCACAGCAGAAGCGUUCACGUCGCGGCCCCUGUCAGAUUCGGGUGAAUCUGCCAAUUCUGCUGU | 0.936
GGGGGCCACAGCAGAAGCGUUCACGUCGCGGCCCCUGUCAGAUUCGGGUGAAUCUGCAAAUUCUGCUGU | 0.957
GGGGGCCACAGCAGAAGCGUUCACGUCGCGGCCCCUGUCAGAUUCUCGUGAAUCUGCGAAUUAUGCUGU | 0.944
GGGGGCCACAGCAGAAGCGUUCACGUCGCGGCCCCUGUCAGAUUCUCGUGAAUCUGCGAAUUGUGCUGU | 0.891
GGGGGCCACAGCAGAAGCGUUCACGUCGCGGCCCCUGUCAGAUUCGGGUGAAUCUGCGAAUUCUGCUAU | 1.01
GGGGGCCACAGCAGAAGCGUUCACGUCGCGGCCCCUGUCAGAUUCUAGUGAAUCUGCGAAUUCUGCAGU | 0.969
GGGGGCCACAGCAGAAGCGUUCACGUCGCGGCCCCUGUCAGAUUCCGGUUAAUCUGCGAAUUCUGCUGU | 0.984
GGGGGCCACAGCAGAAGCGUUCACGUCGCGGCCCCUGUCAGAUUCUAGUGAAUCUCCGAAUUCUGCUGU | 0.918
GGGGGCCACAGCAGAAGCGUUCACGUCGCGGCCCCUGUCAGAUUCUAGUGAUUCUGCGAAUUCUGCUGU | 1.01
GGGGGCCACAGCAGAAGCGUUCACGUCGCGGCCCCUGUCAGAUUCUAGUGACUCUGCGAAUUCUGCUGU | 0.993
GGGGGCCACAGCAGAAGCGUUCACGUCGCGGCCCCUGUCAGAUUCGGGGGAAUCUGCGAAUUCUGCUGU | 0.972
GGGGGCCACAGCAGAAGCGUUCACGUCGCGGCCCCUGUCAGAUUCGGGUGAAUCUGCGAAUUCUGCUGU | 0.994
GGGGGCCACAGCAGAAGCGUUCACGUCGCGGCCCCUGUCAGAUUCUAGUGAAUCAGCGAAUUCUGCUGU | 1
GGGGGCCACAGCAGAAGCGUUCACGUCGCGGCCCCUGUCAGAUUCUCGUGAAUAUGCGAAUUCUGCUGU | 0.949
GGGGGCCACAGCAGAAGCGUUCACGUCGCGGCCCCUGUCAGAUUCGGGUGAAUCUGCGCAUUCUGCUGU | 0.828
GGGGGCCACAGCAGAAGCGUUCACGUCGCGGCCCCUGUCAGAUUCUAGUGAAUCUGCGAAUUCUACUGU | 0.936

Variant | self-cleavage
GGGGGCCACAGCAGAAGCGUUCACGUCGCGGCCCCUGUCAGAUUCUAGUGAAUCUGCGAAUUGUGCUGU | 0.922
GGGGGCCACAGCAGAAGCGUUCACGUCGCGGCCCCUGUCAGAUUCUAGUGAAUCUGCGAAUUUUGCUGU | 1.02
GGGGGCCACAGCAGAAGCGUUCACGUCGCGGCCCCUGUCAGAUUCUCUUGAAUCUGCGAAUUCUGCUGU | 0.995
GGGGGCCACAGCAGAAGCGUUCACGUCGCGGCCCCUGUCAGAUUCUCCUGAAUCUGCGAAUUCUGCUGU | 1.05
GGGGGCCACAGCAGAAGCGUUCACGUCGCGGCCCCUGUCAGAUUCCGGUGAAUCUCCGAAUUCUGCUGU | 0.785
GGGGGCCACAGCAGAAGCGUUCACGUCGCGGCCCCUGUCAGAUUCCGGUGAAUCUACGAAUUCUGCUGU | 0.933
GGGGGCCACAGCAGAAGCGUUCACGUCGCGGCCCCUGUCAGAUUCUCGAGAAUCUGCGAAUUCUGCUGU | 1
GGGGGCCACAGCAGAAGCGUUCACGUCGCGGCCCCUGUCAGAUUCUCGUGAAUCUGGGAAUUCUGCUGU | 0.299
GGGGGCCACAGCAGAAGCGUUCACGUCGCGGCCCCUGUCAGAUUCUAGUGAAUCUGCGGAUUCUGCUGU | 0.988
GGGGGCCACAGCAGAAGCGUUCACGUCGCGGCCCCUGUCAGAUUCUAGUGAAUCUGCGCAUUCUGCUGU | 0.769
GGGGGCCACAGCAGAAGCGUUCACGUCGCGGCCCCUGUCAGAUUCUAGUGAAUCUGCGAAUUCGGCUGU | 0.959
GGGGGCCACAGCAGAAGCGUUCACGUCGCGGCCCCUGUCAGAUUCGGGUGAAUCUGCGAAUUCUGCCGU | 0.979
GGGGGCCACAGCAGAAGCGUUCACGUCGCGGCCCCUGUCAGAUUCUAGUGAAUCUGCGAAAUCUGCUGU | 0.941
GGGGGCCACAGCAGAAGCGUUCACGUCGCGGCCCCUGUCAGAUUCUCGUGAAUCGGCGAAUUCUGCUGU | 0.931
GGGGGCCACAGCAGAAGCGUUCACGUCGCGGCCCCUGUCAGAUUCUCGUGAAUCAGCGAAUUCUGCUGU | 1.03
GGGGGCCACAGCAGAAGCGUUCACGUCGCGGCCCCUGUCAGAUUCCGGUGAAUCUGCGAAUUCUUCUGU | 0.629
GGGGGCCACAGCAGAAGCGUUCACGUCGCGGCCCCUGUCAGAUUCUCGUGUAUCUGCGAAUUCUGCUGU | 1.02
GGGGGCCACAGCAGAAGCGUUCACGUCGCGGCCCCUGUCAGAUUCUCGUGGAUCUGCGAAUUCUGCUGU | 1
GGGGGCCACAGCAGAAGCGUUCACGUCGCGGCCCCUGUCAGAUUCUCGUAAAUCUGCGAAUUCUGCUGU | 0.965
